The text below walks through data of paper PMC12096946, “Structural analysis of genetic variants of the human tumor suppressor PALB2 coiled-coil domain” (Bioscience Reports, 2025).

Substitutions are numbered along the chain they refer to. Names and notes keep the numbering of the source.

This data set concerns the molecule itself. Briefly: SEC; analytical size exclusion chromatography, Superdex75 column; 50 mM Na2HPO4, 150 mM NaCl, 5 mM DTT, pH 6.5; mass from molecular weight standards. Background: Size exclusion chromatography separates by hydrodynamic size, large species first.

B1: human PALB2 coiled-coil domain (PALB2cc, residues 6-42) (domain or fragment, UniProt Q86YC2 6-42, looked up)
chain: GKPLSCEEKEKLKEKLAFLKREYSKTLARLQRAQRAE
notes: PALB2 (partner and localizer of BRCA2), human, N-terminal coiled-coil domain, residues 6-42 of the 1186-amino-acid protein; A methionine was introduced before the domain for CNBr cleavage of the His-GB1 tag; The NMR sample was uniformly 13C,15N labelled; The methods of the CD experiments say that PALB2cc peptides were synthesized; also called wt-PALB2cc; source: E. coli BL21-DE3, purified …
One may read the stoichiometry N as a count of units in the complex or per binding partner. As to B1, the “stoichiometry N” value turned out to be 2.

B2: S10E, S29E-PALB2cc (peptide, UniProt Q86YC2 6-42, looked up)
chain: B1 chain with S5E, S24E
notes: also called S10E, S29E phosphomimetic PALB2 coiled-coil domain; source: synthetic peptide (Lifetein technologies)
On to B2, for which the binding result was “binds”.
